Measured values from patent US20180148504A1 (EISAI R AND D MANAGEMENT, published 2018).

B1: Monoclonal antibody 1C6.E12.G8 (antibody, mouse IgG1, V domains shown)
VH: SGARELVKPGASVKLSCKTSGFTFNSSYITWLKQKPGQSLEWIAWIYAGNGGTTYNQKFTGKAQLTVDTSSSTAYMQFSSLTTEDSAIYYCASETYTNYWYFDVWGSGTTVTVSS
VL: QSPASLSASVGETVTITCRASGNIHNYLAWYQQKQGKSPQLLVYNAKTLADGVPSRFSGSGSGTQYSLKINSLQPEDFGSYYCQHFWSTPYTFGGGTKLEIK
notes: Murine IgG1 kappa from hybridoma; also called ATCC PTA-123091
B2: Monoclonal antibody 1D2.D8.G10 (antibody, mouse IgG1, V domains shown)
VH: QSGTVLARPGASVKMSCKASGYSFTSNWMHWIKQRPGQGLEWIGAIYPGNSDTSYNQKFKGKAKLTAVTSASTAYMELSSLTNEDSAVYHCTRGDGSSFWYFDVWGAGTTVTVSS
VL: QSPASLVVSLGQRATISCRASKSVSTSGYSYMYWYQQKSGQPPKLLIYLASNLESGVPARFSGGGSGTDFTLNIHPVEEEDAATYYCQQSRELPPTFGGGTKLEIK
notes: Murine IgG1 kappa from hybridoma; also called 1D2.D8.G0; ATCC PTA-123098
B3: Monoclonal antibody 5C12.H8 (antibody, mouse IgG2b, V domains shown)
VH: GPGLVKPSQSLSLTCSVTGYSITSGYYWIWIRQFPGNKLEWMGYISYDGSNNYNPSLKNRISITRDTSKNQFFLKLNSVTTEDTATYYCARGNYYAMDYWGQGTSVTVSS
VL: not shown
notes: Murine IgG2b kappa from hybridoma; also called ATCC PTA-123095

How the values were obtained:
[1] = molecular target: T1, recombinant purified FRα (ECL assay calibrator) (human, UniProt P15328 25-234); experiment: ECL sandwich, FRα calibrator; capture 1A8.G11.E7; binder = detection Ab
T1 construct: Calibrator of the ECL sandwich assays; also called FRα calibrator; FRα standard

[2] = molecular target: T2, recombinant human folate receptor alpha (rhFRα) (human, UniProt P15328 25-234); experiment: BIAcore (SPR), format not described
T2 construct: CHO: Ig kappa leader, C-terminal 6xHis replacing the GPI attachment site; also called FOLR1; FOLR-1

[3] = molecular target: T1, recombinant purified FRα (ECL assay …); experiment: ECL sandwich on FRα, signal to background; capture 6A2.G7; binder = detection Ab
[4] = molecular target: T1, recombinant purified FRα (ECL assay …); experiment: ECL sandwich, FRα calibrator; capture 30G6.G6.G4.E9; binder = detection Ab
[5] = molecular target: T1, recombinant purified FRα (ECL assay …); experiment: ECL sandwich on FRα, signal to background; capture 2F11.F8; binder = detection Ab
[6] = molecular target: T1, recombinant purified FRα (ECL assay …); experiment: ECL sandwich on FRα, signal to background; capture 1D2.G8.G10; binder = detection Ab
[7] = molecular target: T1, recombinant purified FRα (ECL assay …); experiment: ECL sandwich, FRα calibrator; capture 6A2.G7; binder = detection Ab
[8] = molecular target: T1, recombinant purified FRα (ECL assay …); experiment: ECL sandwich, FRα calibrator; capture 26A9.C4; binder = detection Ab
[9] = molecular target: T1, recombinant purified FRα (ECL assay …); experiment: ECL sandwich, FRα calibrator; capture 24H8.F3; binder = detection Ab
[10] = molecular target: T1, recombinant purified FRα (ECL assay …); experiment: ECL sandwich, FRα calibrator; capture 19D4.B7; binder = detection Ab
[11] = molecular target: T1, recombinant purified FRα (ECL assay …); experiment: ECL sandwich on FRα, signal to background; capture 19D4.B7; binder = detection Ab
[12] = molecular target: T1, recombinant purified FRα (ECL assay …); experiment: ECL sandwich, FRα calibrator; capture 24H8.D3; binder = detection Ab
[13] = molecular target: T1, recombinant purified FRα (ECL assay …); experiment: ECL sandwich on FRα, signal to background; capture 19D2.G9; binder = detection Ab
[14] = molecular target: T1, recombinant purified FRα (ECL assay …); experiment: ECL sandwich, FRα calibrator; capture 28H12.G9; binder = detection Ab
[15] = molecular target: T1, recombinant purified FRα (ECL assay …); experiment: ECL sandwich, FRα calibrator; capture 19D2.G9; binder = detection Ab
[16] = molecular target: T1, recombinant purified FRα (ECL assay …); experiment: ECL sandwich on FRα, signal to background; capture 28H12.G9; binder = detection Ab
[17] = molecular target: T1, recombinant purified FRα (ECL assay …); experiment: ECL sandwich, FRα calibrator; capture 2F11.F8; binder = detection Ab
[18] = molecular target: T1, recombinant purified FRα (ECL assay …); experiment: ECL sandwich on FRα, signal to background; capture 5C12.H8; binder = detection Ab
[19] = molecular target: T3, human folate receptor beta (FRβ), recombinant, C-terminal 6xHis (human, UniProt P14207 17-230, limits assumed); experiment: direct ELISA, plates coated with 1 µg/mL FR isoform, dilution series of culture supernatant
T3 construct: Transiently expressed in 293F cells and purified; coated on ELISA plates

[20] = molecular target: T4, human folate receptor gamma (FRγ), recombinant, C-terminal 6xHis (human, UniProt P41439 23-245, limits assumed); experiment: as above
T4 construct: Transiently expressed in 293F cells and purified; coated on ELISA plates

[21] = molecular target: T1, recombinant purified FRα (ECL assay …); experiment: ECL sandwich, FRα calibrator; capture 1C6.E12.G8; binder = detection Ab
[22] = molecular target: T1, recombinant purified FRα (ECL assay …); experiment: ECL sandwich on FRα, signal to background; capture 24H8.F3; binder = detection Ab
[23] = molecular target: T1, recombinant purified FRα (ECL assay …); experiment: ECL sandwich, FRα calibrator; capture 1D2.G8.G10; binder = detection Ab
[24] = molecular target: T1, recombinant purified FRα (ECL assay …); experiment: ECL sandwich on FRα, signal to background; capture 26A9.C4; binder = detection Ab
[25] = molecular target: T1, recombinant purified FRα (ECL assay …); experiment: ECL sandwich on FRα, signal to background; capture 1C6.E12.G8; binder = detection Ab
[26] = molecular target: T1, recombinant purified FRα (ECL assay …); experiment: ECL sandwich on FRα, signal to background; capture 24H8.D3; binder = detection Ab
[27] = molecular target: T1, recombinant purified FRα (ECL assay …); experiment: ECL sandwich on FRα, signal to background; capture 30G6.G6.G4.E9; binder = detection Ab
[28] = molecular target: T1, recombinant purified FRα (ECL assay …); experiment: ECL sandwich, FRα calibrator; capture 5C12.H8; binder = detection Ab
[29] = molecular target: T1, recombinant purified FRα (ECL assay …); experiment: ECL sandwich on FRα, signal to background; capture 1A8.G11.E7; binder = detection Ab

T4 sequence (P41439 other isoform, or with tags, fused parts or gaps limits assumed): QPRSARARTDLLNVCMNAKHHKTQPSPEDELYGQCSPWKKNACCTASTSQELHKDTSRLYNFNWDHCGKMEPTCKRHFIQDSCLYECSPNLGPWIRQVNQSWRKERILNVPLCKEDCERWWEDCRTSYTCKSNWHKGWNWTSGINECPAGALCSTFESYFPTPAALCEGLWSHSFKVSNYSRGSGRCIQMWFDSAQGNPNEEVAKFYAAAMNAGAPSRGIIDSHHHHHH
T3 sequence (P14207 other isoform, or with tags, fused parts or gaps limits assumed): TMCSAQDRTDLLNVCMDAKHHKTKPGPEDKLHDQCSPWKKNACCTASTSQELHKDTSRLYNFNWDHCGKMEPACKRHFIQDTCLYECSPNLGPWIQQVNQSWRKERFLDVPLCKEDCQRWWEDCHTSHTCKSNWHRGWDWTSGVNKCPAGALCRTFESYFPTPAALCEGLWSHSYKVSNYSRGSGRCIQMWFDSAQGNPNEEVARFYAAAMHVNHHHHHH
T1 sequence (P15328 25-234 limits assumed): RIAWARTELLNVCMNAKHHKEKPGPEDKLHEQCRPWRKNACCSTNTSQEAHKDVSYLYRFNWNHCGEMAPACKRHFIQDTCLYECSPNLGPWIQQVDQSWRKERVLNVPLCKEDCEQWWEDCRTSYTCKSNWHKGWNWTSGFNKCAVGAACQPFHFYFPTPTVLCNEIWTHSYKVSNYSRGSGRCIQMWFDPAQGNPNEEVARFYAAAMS
T2 sequence (P15328 25-234 limits assumed): as above

Row | Binder | Specific signal at 500 pg/mL [1] | Kd [2] | Average of S/B [3] | Specific signal at 500 pg/mL [4] | Average of S/B [5] | Average of S/B [6] | Specific signal at 500 pg/mL [7] | Specific signal at 500 pg/mL [8] | Specific signal at 500 pg/mL [9] | Specific signal at 500 pg/mL [10] | Average of S/B [11] | Specific signal at 500 pg/mL [12] | Average of S/B [13] | Specific signal at 500 pg/mL [14] | Specific signal at 500 pg/mL [15] | Average of S/B [16] | Specific signal at 500 pg/mL [17] | Average of S/B [18] | binding result [19] | binding result [20] | further results
1 | B1 | 54 | 9.76 nM | 19 | 10900 | 1 | 1 | 967 | 73 | 75 | 37500 | 449 | 74 | 1 | 92 | 80 | 1 | 67 | 1 | no binding | no binding | Specific signal at 500 pg/mL [21]: 86; Average of S/B [22]: 1; Specific signal at 500 pg/mL [23]: 53; Average of S/B [24]: 1; Average of S/B [25]: 1; Average of S/B [26]: 1; Average of S/B [27]: 144; Specific signal at 500 pg/mL [28]: 70; Average of S/B [29]: 1
2 | B2 | 57 | 6.88 nM | 26 | 7910 | 1 | 1 | 1690 | 86 | 67 | 21800 | 218 | 79 | 1 | 78 | 67 | 1 | 62 | 1 | no binding | no binding | Specific signal at 500 pg/mL [21]: 74; Average of S/B [22]: 1; Specific signal at 500 pg/mL [23]: 87; Average of S/B [24]: 1; Average of S/B [25]: 1; Average of S/B [26]: 1; Average of S/B [27]: 75; Specific signal at 500 pg/mL [28]: 73; Average of S/B [29]: 1
3 | B3 | 66 | 10.8 nM | 9 | 5290 | 1 | 1 | 596 | 78 | 60 | 18400 | 253 | 71 | 1 | 68 | 77 | 1 | 123 | 1 | no binding | no binding | Specific signal at 500 pg/mL [21]: 58; Average of S/B [22]: 1; Specific signal at 500 pg/mL [23]: 57; Average of S/B [24]: 1; Average of S/B [25]: 1; Average of S/B [26]: 1; Average of S/B [27]: 61; Specific signal at 500 pg/mL [28]: 100; Average of S/B [29]: 1
